The values that follow come from US20240124575A1.

The target in assay [1] is murine CD33 protein (murine) (UniProt Q63994). Kind of assay: ELISA, coated murine CD33, antibody 0.001 nM. A general note: In an ELISA, binding on a coated surface is turned into a signal by an enzyme label.
The target is the same in assay [2]. Kind of assay: ELISA, coated murine CD33, antibody 1 nM.
In assay [3] the target is monkey CD33 protein (monkey). Briefly: ELISA, coated monkey CD33, antibody 0.0001 nM.
The target of assay [4] is murine CD33 protein (murine) (UniProt Q63994). Briefly: ELISA, coated murine CD33, antibody 0.01 nM.
Assay [5] deals with monkey CD33 protein (monkey). Briefly: ELISA, coated monkey CD33, antibody 0.01 nM.
The target in assay [6] is murine CD33 protein (murine) (UniProt Q63994). Briefly: ELISA, coated murine CD33, antibody 10 nM.
Assay [7] shares this target. Briefly: ELISA, coated murine CD33, antibody 0.0001 nM.
In assay [8] the target is monkey CD33 protein (monkey). Briefly: ELISA, coated monkey CD33, antibody 100 nM.
Assay [9] concerns the target monkey CD33 protein (monkey). Briefly: ELISA, coated monkey CD33, antibody 100 nM. This is another data set of the same source.
Assay [10] concerns the target monkey CD33 protein (monkey). Kind of assay: ELISA, coated monkey CD33, antibody 0.01 nM. The source holds these as a separate data set.
Assay [11] deals with monkey CD33 protein (monkey). Kind of assay: ELISA, coated monkey CD33, antibody 0.1 nM.
The target of assay [12] is monkey CD33 protein (monkey). Kind of assay: ELISA, coated monkey CD33, antibody 10 nM.
Assay [13] deals with monkey CD33 on HEK293T-monkey CD33 cells (monkey). Briefly: FACS on HEK293T-monkey CD33 cells.
Assay [14] addresses monkey CD33 protein (monkey). Briefly: ELISA, coated monkey CD33, antibody 0.001 nM.
Assay [15] deals with monkey CD33 on HEK293T-monkey CD33 cells (monkey). Briefly: FACS on HEK293T-monkey CD33 cells. This is another data set of the same source.
Assay [16] deals with monkey CD33 protein (monkey). Kind of assay: ELISA, coated monkey CD33, antibody 1 nM.
In assay [17] the target is murine CD33 protein (murine) (UniProt Q63994). Briefly: ELISA, coated murine CD33, antibody 100 nM.
In assay [18] the target is monkey CD33 protein (monkey). Kind of assay: ELISA, coated monkey CD33, antibody 1 nM. This is another data set of the same source.
Assay [19] concerns the target murine CD33 protein (murine) (UniProt Q63994). Briefly: ELISA, coated murine CD33, antibody 0.1 nM.
In assay [20] the target is monkey CD33 protein (monkey). Kind of assay: ELISA, coated monkey CD33, antibody 10 nM. The source holds these as a separate data set.
Assay [21] has as its target monkey CD33 protein (monkey). Briefly: ELISA, coated monkey CD33, antibody 0.001 nM. The source holds these as a separate data set.
Assay [22] deals with monkey CD33 protein (monkey). Briefly: ELISA, coated monkey CD33, antibody 0.0001 nM. The source holds these as a separate data set.

Where two headings read alike, the source gives them in different places.

murine CD33 protein (murine), sequence (Q63994 18-240 limits assumed): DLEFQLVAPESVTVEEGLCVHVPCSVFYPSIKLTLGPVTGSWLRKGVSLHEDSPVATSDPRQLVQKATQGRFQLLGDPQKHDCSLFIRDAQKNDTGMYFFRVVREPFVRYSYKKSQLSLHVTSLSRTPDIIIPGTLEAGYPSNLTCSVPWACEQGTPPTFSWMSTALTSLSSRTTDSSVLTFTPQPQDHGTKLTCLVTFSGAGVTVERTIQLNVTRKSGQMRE

Take anti-hel-hIgG1 antibody: the OD450 in assay [1] was 0.06 OD450; in assay [2], 0.06 OD450; in assay [3] it was 0.05 OD450; in assay [4], 0.06 OD450; in assay [5], 0.05 OD450; in [6] it was 0.07 OD450. The OD450 is 0.06 OD450 in assay [7]; 0.06 OD450 in [8]; 0.08 OD450 in assay [9]; 0.04 OD450 in assay [10]; 0.05 OD450 in assay [11]; 0.06 OD450 in assay [12]. Also, the OD450 was 0.04 OD450 in assay [14]; 0.04 OD450 in [16]; 0.08 OD450 in [17]; 0.05 OD450 in assay [18]; 0.06 OD450 in assay [19]; 0.05 OD450 in assay [20]. For the same substance, the results for the OD450 in [21] and in assay [22] were 0.07 OD450 and 0.06 OD450, respectively. The values for the Max MFI in [13] and in assay [15] were 107 MFI and 322 MFI, respectively.
